The record followed here is patent publication US20250282852A1.

The target in assay [1] is biotinylated oligomeric Aβ1-42 (UniProt P05067). The assay can be described thus: Octet biolayer interferometry, biotinylated oligomeric Aβ on streptavidin biosensor, hCD22-His in solution.
For assay [2] the target is unchanged. The assay can be described thus: Octet 96e (printed as 'SPR system'), biotinylated oligomeric Aβ1-42 on streptavidin biosensor, CD22 extracellular domain at various concentrations in solution. (BLI is a label-free optical method that tracks binding on a fibre tip over time.)

The koff is the rate constant with which the complex falls apart. Low readings indicate slow dissociation, high ones fast dissociation. As usually defined, the kon is a measure of how fast the partners come together. Broadly, the Kd is the equilibrium constant for the complex coming apart. “extracellular domain of CD22 (Sino Biological) (receptor)”: in assay [1], the koff came out at 0.000522 s⁻¹ and the association rate constant (kon) worked out at 186000 M⁻¹ s⁻¹. Further, the Kd in assay [2] worked out at 2.79 nM.
